Measurements as given in PMC11029812, “Liver-targeted polymeric prodrugs delivered subcutaneously improve tafenoquine therapeutic window for malaria radical cure” (Science Advances, 2024).
Entries after “also recorded” stand apart in the source; their conditions may differ.

Columns and labels:
[1] = Tissue pharmacokinetics of released TQ and its metabolites in liver, plasma and urine (LC-MS/MS); assay type: in vivo, BALB/c mice; settings: mouse, in vivo
[2] = test system: P. berghei; assay: P. berghei luciferase and blood parasitemia model of causal prophylaxis; assay type: in vivo; settings: for Mice survived: 31 days, n = 5
Procedure: Efficacy studies in the P. berghei mouse model of causal prophylaxis were conducted at the Walter Reed Army Institute of Research, Experimental Therapeutics Branch as previously described ([46]).
Luciferase-expressing P. berghei ANKA sporozoites were obtained from laboratory-reared female Anopheles stephens mosquitoes as previously described ([46]). Sporozoites were recovered by the method of Li et al. ([62]) and quantitated using a hemocytometer. Sporozoites isolated from the same batch of mosquitoes were inoculated into mice on the same day to control biological variability in sporozoite preparations. Each animal was inoculated IV in the tail vein with approximately 10,000 sporozoites suspended in 0.1-ml volume on day 0.
Age-matched, 40 young adult (7-week-old) female C57BL/6 albino mice were purchased from Charles River Laboratories (Frederick, MD). On arrival, animals were acclimated for 7 days in quarantine. Mice were housed and maintained at a temperature range of 64° to 79°F, 34 to 68% relative humidity, and a 12-hour light/dark cycle. Food and water were provided ad libitum. Animals were fed a standard rodent maintenance diet. All animal use, care, and handling was conducted under an IACUC-approved animal use protocol in an Association for Assessment and Accreditation for Laboratory Animal Care International (AAALACi)–accredited facility with a Public Health Services Animal Welfare Assurance and in compliance with the Animal Welfare Act and other federal statutes and regulations relating to laboratory animals.
TQ was dissolved at a stock concentration of 1 mg/ml in 25% hydroxy-β-cyclodextrin acidified to pH 5 with acetic acid and diluted in DPBS for final dosing solutions. Polymers for parenteral administration were prepared in DPBS at the final dosing concentrations. All drug concentrations were calculated per the free base molecular weights of TQ. TQ parent compounds were administered intragastrically via an intragastric feeder tube. Vehicle groups (0.1 ml of DPBS) and polymer groups were administered SC in the right flank. Free TQ, vehicle, and polymers were given as a single dose on day −1. In this model, the pSVCTQ doses studied were 5.0, 7.5, or 10 mg/kg TQ equivalent.
Whole-body IVIS imaging of bioluminescence activity from luciferase-expressing P. berghei–infected mice was performed using a PerkinElmer IVIS Spectrum. Mice were evaluated at 24, 48, and 72 hours after sporozoite inoculation to determine liver- and blood-stage malaria infection. Mice received luciferin (150 mg/kg, Gold Biotechnology, St. Louis, MO) intraperitoneally in a maximal volume of 150 μl. Three minutes after luciferin administration, the mice were anesthetized with inhaled isoflurane and positioned ventral side up in the IVIS Spectrum on a 37°C platform. The mice continued to receive isoflurane through nose cone delivery. The camera exposure times used were 1 or 5 min for the 24-, 48-, and 72-hour time points with f-stop = 1, and the large binning setting was chosen. Quantitative analysis of bioluminescence emitted from whole bodies or […] (ROI) were determined by measuring the luminescence signal intensity in photons per second using the ROI settings of the Living Image 3.0 software. The ROI, expressed in total flux of photons, was set to measure the abdominal area at the location of the liver from whole-body imaging ([62]). The data were generally found to fit a normal distribution. Means and SDs of photon measurement were calculated.
On days 5 to 31 after infection, mice were analyzed for blood-stage infections by quantitation of malaria parasites in erythrocytes by flow cytometry. Blood (3 μl) from the mouse tail was collected directly into 0.3 ml of 1% heparinized isotonic buffer (PBS saline). After addition of 1 ml of 0.04% of glutaraldehyde for fixation, the samples were incubated at 4°C for 60 min. Cells were centrifuged at 450g for 5 min. […]

p(GalNAc-MA-co-SVCTQ-MA) [pSVCTQ]
AUC, liver ([1]; iv, 25 mg/kg): 2550 μg/g liver*hour | AUC, plasma ([1]; iv, 25 mg/kg): 15.53 μg/ml plasma* hour | Cmax, liver ([1]; iv, 25 mg/kg): 57 μg/g liver | Cmax, plasma ([1]; iv, 25 mg/kg): 0.20 μg/ml plasma | Liver:plasma AUC ratio ([1]; iv, 25 mg/kg): 164 | Tmax, liver ([1]; iv, 25 mg/kg): 8 h | Tmax, plasma ([1]; iv, 25 mg/kg): 2 h | OQTQ metabolite in urine ([1]; sc): high level | Reduction of the Cmax of TQ in blood ([1]; sc): over 75% | Reduction of the blood AUC over 14 days ([1]; sc): more than 50% | AUC, liver ([1]; sc, 10 mg/kg): 2422 μg/g liver*hour | AUC, plasma ([1]; sc, 10 mg/kg): 9.617 μg/ml plasma* hour | CTQ metabolite in plasma ([1]; sc, 10 mg/kg): absence | Cmax, liver ([1]; sc, 10 mg/kg): 25 μg/g liver | Cmax, plasma ([1]; sc, 10 mg/kg): 0.10 μg/ml plasma | Liver:plasma AUC ratio ([1]; sc, 10 mg/kg): 252 | OQTQ metabolite in plasma ([1]; sc, 10 mg/kg): low | Tmax, liver ([1]; sc, 10 mg/kg): 8 h | Tmax, plasma ([1]; sc, 10 mg/kg): 24 h | Mice survived ([2]; 5 mg/kg SC, single dose day −1): 2/5 | Blood parasitemia suppression ([2]; 5 mg/kg TQ equivalent SC, single dose day −1): partial suppression of parasitemia | Mice survived ([2]; 7.5 mg/kg SC, single dose day −1): 4/5 | Mice survived ([2]; 10 mg/kg SC, single dose day −1): All mice survived | Mice survived ([2]; 10 mg/kg SC, single dose day −1, listed as SVCTQ polymer): 5/5 | Causal prophylaxis (complete parasite suppression) ([2]; 10 mg/kg TQ equivalent SC, single dose day −1): 100% | IVIS signal during days 1 to 3 ([2]; 10 mg/kg single dose day −1, pSVCTQ SC, TQ oral): completely suppressed | Activity compared to oral TQ (based on the TQ equivalent dose) ([2]; P. berghei prophylactic model, single dose day −1): approximately twofold; also recorded: approximately twice
